# Laboratory results taken from paper PMC7036035.
# Experiments:
# [1] = test system: C[C@H](CCC(=O)NCCS(=O)(=O)O)[C@H]1CC[C@H]2[C@@H]3[C@@H](O)C[C@@H]4C[C@H](O)CC[C@]4(C)[C@H]3CC[C@]12C; experiment: purified protein; conditions: pH 7.5; 37.0 °C
# [2] = test system: C[C@H](CCC(=O)NCCS(=O)(=O)O)[C@H]1CC[C@H]2[C@@H]3CC[C@@H]4C[C@H](O)CC[C@]4(C)[C@H]3C[C@H](O)[C@]12C; experiment: purified protein; conditions: pH 7.5; 37.0 °C
substance,measurement,setting,value
B. theta BSH (BT_2086) (Bacteroides thetaiotaomicron VPI-5482),Km,[1],8.2 mM
same,kcat,[1],0.255 ± 0.0133 s⁻¹
same,kcat/Km,[1],31.7 ± 5 M⁻¹ s⁻¹
same,Km,[2],3.4 mM
same,kcat,[2],0.215 ± 0.01 s⁻¹
same,kcat/Km,[2],63.3 ± 11.7 M⁻¹ s⁻¹
